The values below come from article PMC11849304 (Virology Journal, 2025).

The target of the experiment is soluble WT SARS-CoV-2 spike trimer protein (SARS-CoV-2, wild-type (NC_045512), UniProt P0DTC2). The experiment is described as follows: ELISA. A general note: An ELISA detects its analyte on a solid surface through an enzyme-linked reagent.

B1: 8D2 (antibody, V domains shown)
VH: EVQLVESGGGLVQPGGSLRLSCAASGFTFSSYWMSWVRQAPGKGLEWVANINQDGSEKYYVDSVKGRFTISRDNAKNSLYLQVNSLRAEDTAVYYCARDWDYDILTGSWFGAFDIWGQGTTVTVSS
VL: DIQMTQSPSSLSASVGDRVTITCRASQGIRNDLGWYQQKPGKAPKRLIYAASSLQSGVPSRFSGSGSGTEFTLTISSLQPEDFATYYCLQHNSYPLTFGGGTKVEIK
B1: the binding result is “binds”.

B2: COV2-2490 (antibody, V domains shown)
VH: EVQLVESGGGLVQPGGSLRLSCAASGFTFSSYWMNWVRQAPGKGLEWVANINQDGGEKYYVDSVRGRFTISRDNAKNSLYLQMNSLRAEDTAVYYCARDPYDLYGDYGGTFDYWGQGTLVTVSS
VL: not shown
Turning to B2, the binding result is listed as “binds”.
